Laboratory results as given in FireProtDB (doi:10.1002/prot.10406).
Several values for one entry are separate records, joined by “and”; a condition that tells them apart may be missing. Equal values may be shown once.

Details: Homo sapiens, Urea, CD, phosphate citrate borate 2 mM 2 mM 2 mM, NaCl 10 mM, whole UniProt chain shown

B1: Alpha-lactalbumin wild type, P00709 (protein)
chain: MRFFVPLFLVGILFPAILAKQFTKCELSQLLKDIDGYGGIALPELICTMFHTSGYDTQAIVENNESTEYGLFQISNKLWCKSSQVPQSRNICDISCDKFLDDDITDDIMCAKKILDIKGIDYWLAHKALCTEKLEQWLCEKL
With B1 the denaturant m value (pH 2, 20 °C) was 0.54 kcal/mol/M and 0.67 kcal/mol/M, the denaturant m value (pH 7, 2 °C, transition: 3) was 0.95 kcal/mol/M and 0.55 kcal/mol/M and the “denaturant midpoint (higher = more stable)” value (pH 7, 2 °C, transition: 3) was 2.24 M and 2.34 M. For the same protein, the unfolding free energy (pH 7, 2 °C, transition: 3) was 2.13 kcal/mol and 1.27 kcal/mol.
